{"source": "paper PMC2358973", "about": "“A Cysteine Protease Is Critical for Babesia spp. Transmission in Haemaphysalis Ticks” (PLoS Pathogens, 2008)", "key": {"[1]": {"tested_on": "T1, Cc1cc(=O)oc2cc(NC(=O)[C@H](CCCNC(=N)N)NC(=O)[C@H](CCCNC(=N)N)NC(=O)OCc3ccccc3)ccc12", "T1 construct": "partial coding region (pPICZC) expressed in Pichia pastoris GS115, HiTrap chelating column purified; precursor 341 residues with 17-residue signal peptide", "test": "fluorogenic hydrolysis assay, Michaelis-Menten fit", "format": "biochemical, Haemaphysalis longicornis", "details": "25 mM citric acid/sodium phosphate, pH 6.0, 5 mM DTT", "excerpt": "(§1) fluorogenic hydrolysis assay, Michaelis-Menten fit on longipain"}, "[2]": {"tested_on": "T2, Cc1cc(=O)oc2cc(NC(=O)[C@H](CCCNC(=N)N)NC(=O)[C@H](Cc3ccccc3)NC(=O)OCc3ccccc3)ccc12", "T2 construct": "partial coding region (pPICZC) expressed in Pichia pastoris GS115, HiTrap chelating column purified; precursor 341 residues with 17-residue signal peptide", "test": "fluorogenic hydrolysis assay, Michaelis-Menten fit", "format": "biochemical, Haemaphysalis longicornis", "details": "25 mM citric acid/sodium phosphate, pH 6.0, 5 mM DTT", "excerpt": "as §1"}}, "data": [{"substance": "longipain (Haemaphysalis longicornis)", "values": [{"measurement": "Km", "setting": "[1]", "result": "16.0 ± 0.2", "unit": "µM"}, {"measurement": "kcat", "setting": "[1]", "result": 800, "unit": "s⁻¹"}, {"measurement": "kcat/Km", "setting": "[1]", "result": "5e+07", "unit": "M⁻¹ s⁻¹"}, {"measurement": "Km", "setting": "[2]", "result": "12.1 ± 0.08", "unit": "µM"}, {"measurement": "kcat", "setting": "[2]", "result": 550, "unit": "s⁻¹"}, {"measurement": "kcat/Km", "setting": "[2]", "result": "4.5e+07", "unit": "M⁻¹ s⁻¹"}]}]}
